Measurements taken from publication PMC7652997, “Regulation of γ-Aminobutyrate (GABA) Utilization in Corynebacterium glutamicum by the PucR-Type Transcriptional Regulator GabR and by Alternative Nitrogen and Carbon Sources”.

Experiments:
[1] = target: GabR (Cg0565), PucR-type transcriptional regulator of Corynebacterium glutamicum (Corynebacterium glutamicum ATCC 13032); assay: SEC; Tag-free GabR on Superdex 200 Increase 10/300 GL, 100 mM phosphate buffer pH 7.0 with 1 mM DTT, 0.75 mL/min; native size from a calibration curve (Kav versus log Mr) of standard proteins; apparent mass 420 kDa against a theoretical monomer mass of 55.75 kDa
[2] = target: T1, GabR (Corynebacterium glutamicum WT, UniProt Q8NT36 1-504); assay: EMSA; complex band absent from negative control; 10 mM Tris-HCl pH 7.5, 50 mM NaCl, 5% glycerol, 0.005% Triton X-100, 20 min at room temperature; 100 ng DNA, 0-2.6 uM GabR monomer; native PAGE in TB buffer pH; settings: protein: recombinant; tags: N-terminal His10 removed with TEV protease; chain copies: 8; blunt
T1 sequence: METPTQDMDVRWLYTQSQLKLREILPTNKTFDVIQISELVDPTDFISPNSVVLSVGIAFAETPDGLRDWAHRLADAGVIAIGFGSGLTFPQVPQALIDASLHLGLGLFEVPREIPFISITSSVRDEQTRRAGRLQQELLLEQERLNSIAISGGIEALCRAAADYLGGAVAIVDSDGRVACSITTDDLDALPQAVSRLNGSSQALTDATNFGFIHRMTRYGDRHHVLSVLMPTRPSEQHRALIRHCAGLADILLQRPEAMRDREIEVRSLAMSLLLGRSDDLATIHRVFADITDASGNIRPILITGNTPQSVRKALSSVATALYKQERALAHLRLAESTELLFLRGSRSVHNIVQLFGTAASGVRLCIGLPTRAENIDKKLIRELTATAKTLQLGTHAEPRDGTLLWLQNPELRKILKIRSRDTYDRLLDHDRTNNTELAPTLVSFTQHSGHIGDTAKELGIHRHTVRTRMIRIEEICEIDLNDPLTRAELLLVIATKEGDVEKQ

[3] = target: T1, GabR; assay: EMSA; reasonable binding; 10 mM Tris-HCl pH 7.5, 50 mM NaCl, 5% glycerol, 0.005% Triton X-100, 20 min at room temperature; 100 ng DNA, 0-2.6 uM GabR monomer; native PAGE in TB buffer pH; settings: protein: recombinant; tags: N-terminal His10 removed with TEV protease; chain copies: 8; blunt

With “GabR (Cg0565), PucR-type transcriptional regulator of Corynebacterium glutamicum (natural protein)” as the molecule, how does the stoichiometry N [1] read?
Its stoichiometry N is 8.

B1: NC3 (dsDNA)
DNA 1: CACAGGAGGAACCGTGGAAGATCTCTCATAC
DNA 2: GTATGAGAGATCTTCCACGGTTCCTCCTGTG
Does B1 bind [2]?
Result: no binding

B2: FS3 (dsDNA)
DNA 1: CTGTCAATTATCCATATGGGCGAAATATTGT
DNA 2: ACAATATTTCGCCCATATGGATAATTGACAG
Does B2 bind [3]?
Result: binds
